Measurements reported in the supplement of paper PMC10567573.

B1: ZNF649 (parent)
chain: LVAHQRYHTGKTPFVCPECGQPCS

Variants of: B1
Experiment: protein stability index of a GFP-peptide fusion (GPS, HEK-293T) (PSI 1-6); higher = more stable
Conditions: c terminus: a fixed tail appended
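Further: lentivirally expressed fusions sorted by FACS into six bins by GFP to DsRed ratio, PSI derived from sequencing read proportions per bin multiplied by bin number.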

Protein stability index: each site, then its substitutions
F14: D 4.18; I 3.61; H 3.02; W 3.1; G 4.1; Y 3; L 3.7; K 3.28; C 3.65; V 3.81; T 4.22; M 3.25; Q 3.38; R 3.38; N 3.7; P 3.58
G10: S 2.4; C 3.44; I 3.5; T 3.01; D 3.96; L 3.64; F 3.44; Y 2.82; W 3.9; R 2.78; H 3.24; Q 3.28; A 3.15; P 3.09; K 2.83; V 2.85
T9: E 3.7; D 3.77; Y 3.31; I 3.77; G 3.53; F 3.62; R 2.76; H 2.6; K 2.52; Q 3.31; P 2.88; L 2.92; A 2.77; S 3.1; V 3.06
A3: H 3.59; T 3.47; V 2.46; P 3.24; G 3.68; C 4.11; I 3.32; W 2.57; S 3.58; L 2.69; Q 3.68; F 2.23
K11: P 3.06; I 3.31; S 3.77; Q 3.67; N 3.48; W 2.91; C 3.39; T 3.19; R 3.75; E 3.67; G 3.45; V 4.02; A 3.98; M 3.31; L 3.49; Y 3.07
L1: A 3.76; K 3.65; E 4.06; D 3.6; I 2.95; N 4.24; Q 3.87; R 3.63; M 3.25; G 3.67; Y 1.22; F 2.57; T 3.93
G20: P 3.12; A 3.06; W 2.55; R 2.52; M 3.03; S 3.13; H 2.88; C 2.74; E 3.07; T 3.11; N 3.25; L 2.59; K 2.86
P22: T 3.33; R 3.28; Q 4.03; F 3.1; S 3.53; V 3.5; N 3.77; K 3.6; C 3.85; G 3.35; A 3.58; H 3.41
P17: L 2.26; E 3.16; V 2.59; H 2.86; R 2.26; F 2.16; G 2.92; I 2.73; T 3.04; C 2.98; S 3.37; Y 2.48; Q 3.51; A 2.84
H8: I 3.21; W 2.57; Y 2.69; N 3.18; V 3.77; G 2.52; C 3.05; M 2.75; F 2.49; P 3.67; D 3.54; K 2.57; S 2.93
C19: R 2.51; P 3.21; Y 2.08; G 3.05; S 3.15; L 2.39; E 3.03; N 2.92; T 3.26; D 3.63; W 1.81
S24: I 2.77; L 2.82; M 2.67; R 2.68; T 3.36; Y 2.62; F 3.71; C 3.13; H 3.23; E 3.36; N 2.97; Q 3.12
H4: C 4.02; P 3.4; E 3.31; N 3.33; T 3.17; M 2.76; W 2.72; G 3.42; S 2.87; Y 2.64; R 2.77; Q 3.61; F 2.76; I 2.26
C23: M 2.54; S 2.56; G 2.87; P 3.47; W 2.42; Q 2.73; L 2.67; I 2.98; R 3.19; T 3.35; A 3.27; V 2.99; D 3.72; Y 2.31; H 3.15
V2: Y 2.81; M 3.34; A 3.28; E 4.4; Q 3.62; N 3.39; D 3.87; T 4.06; R 3.36; H 4.09; P 3.5; G 3.81; S 3.49; I 3.1
Y7: P 4.04; T 3.28; S 3.18; N 3.73; R 2.75; E 4.45; C 2.59; F 3.2; M 3.67; V 3.44; G 3.68; H 3.56; I 3.21
C16: I 2.14; K 2.75; E 3.01; A 2.35; F 2.28; N 2.88; G 2.91; L 2.5; H 2.64; Y 2.37; T 2.27; R 2.89; Q 3.03; P 3.48; V 2.58; D 3.8; M 2.72
E18: T 2.4; D 3.18; P 1.91; R 2.18; H 2.38; G 1.8; L 2.66; W 2.7; S 3.11; C 2.82; I 2.61; V 2.31; K 2.54; N 2.34
R6: A 3.46; E 3.74; Q 3.6; I 3.12; K 3.44; H 4.1; F 2.69; N 3.37; C 4.33; G 3.86; D 3.58; P 3.65; Y 3.12; M 3.19
Q5: F 1.95; C 2.86; E 4.17; K 3.03; T 3.07; R 3.06; G 2.98; W 1.16; N 3.15; I 3.78; M 2.24; Y 2.74; P 3.32
Q21: M 2.44; A 3.06; Y 2.77; R 2.62; E 3.59; H 3.09; I 2.58; L 2.74; N 2.66; S 2.86; G 3.93; K 3.19; V 3.5; T 3.24; W 2.97
V15: H 2.4; A 3.33; K 2.42; C 2.88; S 3.19; E 3.66; M 3.3; I 2.74; Y 2.96; Q 3.36; N 3.51; P 3.77; T 3.11; R 3.06
P13: W 3.63; N 3.64; T 4.15; E 3.7; D 3.46; R 3.31; Y 3.26; H 3.36; F 2.8; G 2.94; A 2.94; L 2.62; V 3.32
T12: K 3.15; N 3.39; W 2.96; S 3.5; D 3.06; L 2.96; R 2.91; Y 3.02; Q 2.68; E 3.86; M 3.12; A 3.49; V 3.13; I 3.7; C 3.01
